Data reported in patent US20260007756A1, “COMPOUND AND USE THEREOF” (COHERENT BIOPHARMA (SUZHOU) LIMITED, priority 2022, published 2026).
≈ marks a conversion by molar mass, not a printed value. Read-outs that look alike come from different tables or passages of the source.

How the values were obtained:
[1] = tested on: HT-29 cell subcutaneous xenograft tumor; assay: Pharmacodynamic assessment, HT-29 xenograft model; type: in vivo, BALB/c nude mouse
From the text: Objective: Pre-clinical assessment of the efficacy of CR202 series of compounds for treating BALB/c nude mouse model with HT-29 cell subcutaneous xenograft tumor.
Procedures: HT-29 cells were subcutaneously grafted at the right back of the mice, and the mice were randomized when the mean tumor volume reached 100-150 mm^3. After the administration, the routine monitoring included the effect on tumor growth and the effect of treatment on the normal behavior of the animals, specifically the activity, food and water intake, weight gain or loss, the eyes, the hair, and other abnormal conditions. Clinical symptoms observed during the study were recorded in the raw data. After the administration was started, the body weight and tumor size of the mice were measured periodically. The tumor volume was calculated using the following formula: V=1/2×(a×b^2), where a and b denote the long diameter and short diameter of the tumor, respectively.

[2] = tested on: human prostate cancer 22Rv-1 cell subcutaneous xenograft; assay: Pharmacodynamic assessment, 22Rv-1 xenograft model (Example 17); type: in vivo, BALB/c nude male mouse; conditions: for Safety: 2.87 / 2.88 mg/kg i.v biw×3w
Description: Objective: Pre-clinical anti-tumor effect assessment of CR202 series of compounds in BALB/c nude male mouse model with human prostate cancer 22Rv-1 cell subcutaneous xenograft.
Procedures: 22Rv-1 (CL-00458) cells were cultured in a PRMI1640 medium containing 10% fetal bovine serum. The 22Rv-1 cells in the exponential phase were collected and resuspended in PBS to an appropriate concentration for subcutaneous tumor grafting in nude mice. The mice were subcutaneously grafted at the right back with 1×10^7 22Rv-1 cells, which were resuspended in a mixture of PBS and matrigel (1:1, 0.1 mL/mouse). The growth of the tumors was observed periodically. When the mean volume of the tumors reached 100-150 mm^3, the mice were randomized according to the tumor size. After the administration, the routine monitoring included the effect on tumor growth and the effect of treatment on the normal behavior of the animals, specifically the activity, food and water intake, weight gain or loss, the eyes, the hair, and other abnormal conditions. Clinical symptoms observed during the study were recorded in the raw data. After the administration was started, the body weight and tumor size of the mice were measured periodically. The tumor volume was calculated using the following formula: V=1/2×(a×b^2), where a and b denote the long diameter and short diameter of the tumor, respectively.

22RV1 = type: cell-based, human; conditions: 22RV1, 72 h, CellTiter-Glo
From the text: (§1) Negative and blank controls were set.

MDA-MB-231 = type: cell-based, human; conditions: MDA-MB-231, 72 h, CellTiter-Glo
From the text: as §1

Plasma stability study 2 = type: in vitro ADME; conditions: mouse plasma, 37° C.; for remaining at 0.5 h, 100 μg/mL / remaining at 1 h, 100 μg/mL / remaining at 2 h, 100 μg/mL / remaining at 4 h, 100 μg/mL / remaining at 6 h, 100 μg/mL: read-out: Residual rate of principal component
cathepsin B-human liver = cathepsin B-human liver (Homo sapiens, UniProt P07858); conditions: 37° C.
Description: • 1) The conjugate compounds were prepared into 500 μg/mL stock solutions with 0.1% TFA-acetonitrile water (1:1); • 2) 60 μL of 500 μg/mL compound stock solution was added to 536 μL of 50 mM NaOAc (containing 1 mM EDTA+10 mM Cys), before 4 μL of cathepsin B (CB enzyme) was added, and the mixture was well mixed by gentle shaking. • 3) The cleavage reaction system in step 2) was transferred to a thermostatic incubator at 37° C. for 0 h, 1 h, 2 h, 4 h, or 24 h of incubation. Samples were taken and loaded at various time points for LC-MS analysis.

C4-2 = conditions: C4-2, 72 h, CellTiter-Glo
Description: Cells were prepared in advance, trypsinized, collected, counted, diluted to 1.5×10^4 cells/mL in a complete cell culture medium, and plated in 96-well plates. The diluted cell suspension was added at 100 μL/well, and negative and blank control wells were set on each plate. The 96-well plates with the added cells were incubated overnight at 37° C. in a 5% CO2 incubator.
Samples were serially diluted with medium (serially 3-fold diluted from 10 μM) to 9 concentrations. The medium in the plates was discarded, and the drug solutions were added at 100 μL per well to a 96-well plate in triplicate. Negative and blank controls were set. The plates were incubated at 37° C. for 72 h in a 5% CO2 incubator.
The CellTiter-Glo buffer was thawed and warmed to room temperature, and the CellTiter-Glo substrate was warmed to room temperature. The CellTiter-Glo buffer was added to the flask containing CellTiter-Glo substrate to dissolve the substrate, thereby preparing a CellTiter-Glo working solution, which was then vortexed slowly to complete dissolution. The cell culture plates were equilibrated at room temperature for 30 min, before the CellTiter-Glo working solution was added at 50 μL/well (about half the volume of cell culture medium in each well). The plate was covered by aluminum foil to keep out of light. The culture plate was shaken on an orbital shaker for 2 min to induce cell lysis. The culture plate was left to stand at room temperature for 10 min to stabilize the luminescence signals. The luminescence signal was detected on a microplate reader (Molecular Devices SpectraMax iD5).
Four-parameter curves were fitted using GraphPad Prism 8.0.2 to give IC50 values.

Solubility study in PBS = type: physicochemical; conditions: aqueous buffer, thermodynamic from solid; PBS (pH 7.2 to 7.4); read-out: Solubility, concentration
Description: The mixture was vortexed for 2 min until the solid was dissolved. The solubility was calculated as: C=m/V, C: concentration, m: sample weight, V: PBS total volume.

plasmin = conditions: PBS pH 7.4, 37° C.
Description: • 1) The compounds were formulated into 500 μg/mL stock solutions with PBS (pH 7.4); • 2) 60 μL of 500 μg/mL compound stock solution was added to 420 μL PBS (pH 7.4), before 60 μL of 0.2 U/mL plasmin (or 60 μL of 0.5 U/mL sulfatase) was added, and the mixture was well mixed by gentle shaking; • 3) The cleavage reaction system in step 2) was transferred to a thermostatic incubator at 37° C. for 0 h, 1 h, 2 h, 4 h, or 24 h of incubation. Samples were taken and loaded at various time points for LC-MS analysis.

[3] = 10.9 mg/kg i.v BIW×3, day 25 after grouping
[4] = 22.7 mg/kg i.v BIW×3, day 25 after grouping
[5] = 2.88 mg/kg i.v BIW×3, day 29 after grouping

| SMILES | Safety [2] | IC50 (22RV1) [nM] | IC50 (MDA-MB-231) [nM] | CR20274 release rate (actual release/theoretical release) (Plasma stability study 2; 0 h) [%] | Residual rate of principal component (Plasma stability study 2; 0 h) [%] | CR20274 release rate (actual release/theoretical release) (Plasma stability study 2; 0.5 h) [%] | remaining at 0.5 h, 100 μg/mL (Plasma stability study 2; 0.5 h) [%] | CR20274 release rate (actual release/theoretical release) (Plasma stability study 2; 1 h) [%] | remaining at 1 h, 100 μg/mL (Plasma stability study 2; 1 h) [%] | CR20274 release rate (actual release/theoretical release) (Plasma stability study 2; 2 h) [%] | remaining at 2 h, 100 μg/mL (Plasma stability study 2; 2 h) [%] | CR20274 release rate (actual release/theoretical release) (Plasma stability study 2; 4 h) [%] | remaining at 4 h, 100 μg/mL (Plasma stability study 2; 4 h) [%] | CR20274 release rate (actual release/theoretical release) (Plasma stability study 2; 6 h) [%] | remaining at 6 h, 100 μg/mL (Plasma stability study 2; 6 h) [%] | CR20274 release rate (actual release/theoretical release) (Plasma stability study 2; 24 h) [%] | Residual rate of principal component (Plasma stability study 2; 24 h) [%] | further results |
| --- | --- | --- | --- | --- | --- | --- | --- | --- | --- | --- | --- | --- | --- | --- | --- | --- | --- | --- |
| CCOCCNS(=O)(=O)NC(=O)OCCOCCNC(=O)[C@H](Cc1cn(CCOC(=O)NS(=O)(=O)NCCOCCOC(=O)N[C@H](C(=O)N[C@@H](CCCNC(N)=O)C(=O)Nc2ccc(COC(=O)N(CCOCCC#Cc3cccc4c3CN(C3CCC(=O)NC3=O)C4=O)[C@H]3CC[C@@H](n4cc(-c5ccc(Nc6ncc7c(n6)N(C)[C@H](CC)C(=O)N7C)cc5)nn4)CC3)cc2)C(C)C)nn1)NC(=O)CC[C@H](NC(=O)c1ccc(NCc2cnc3nc(N)nc(O)c3n2)cc1)C(=O)O (stereo partly drawn) [CR202HR] | – | – | – | – | – | – | – | – | – | – | – | – | – | – | – | – | – | Mean tumor volume [1, 3]: 946.05 mm^3; TGI [1, 3]: 54.51%; Mean tumor volume [1, 4]: 614.73 mm^3; TGI [1, 4]: 70.44% |
| CCCOCCOCCOCCO[Si](Oc1ccc(COC(=O)N(CCOCCC#Cc2cccc3c2CN(C2CCC(=O)NC2=O)C3=O)[C@H]2CC[C@@H](n3cc(-c4ccc(Cc5ncc6c(n5)N(C5CCCC5)[C@H](CC)C(=O)N6C)c(OC)c4)nn3)CC2)cc1)(C(C)C)C(C)C (stereo partly drawn) [CR202HT] | good safety | – | – | – | – | – | – | – | – | – | – | – | – | – | – | – | – | Mean tumor volume [2, 5]: 690.37 mm^3; TGI [2, 5]: 58.19% |
| CC[C@@H]1C(=O)N(C)c2cnc(Nc3ccc(-c4cn([C@H]5CC[C@@H](N(CCOCCC#Cc6cccc7c6CN(C6CCC(=O)NC6=O)C7=O)C(=O)OCc6ccc(OP(=O)(O)O)c(C(=O)NCCOCCOCCOCCn7cc(C[C@H](NC(=O)[C@H](CCCCN)NC(=O)[C@H](CC(=O)O)NC(=O)[C@H](CC(=O)O)NC(=O)Cc8ccc(CNC(=O)NCCCC[C@H](NC(=O)N[C@@H](CCC(=O)O)C(=O)O)C(=O)O)cc8)C(=O)N[C@@H](CCCCNC(=O)CC[C@H](NC(=O)c8ccc(NCc9cnc%10[nH]c(N)nc(=O)c%10n9)cc8)C(=O)O)C(N)=O)nn7)c6)CC5)nn4)cc3OC)nc2N1C1CCCC1 (stereo partly drawn) [CR202LB] | good safety | – | – | – | – | – | – | – | – | – | – | – | – | – | – | – | – | – |
| CC[C@@H]1C(=O)N(C)c2cnc(Nc3ccc(-c4cn([C@H]5CC[C@@H](N(CCOCCC#Cc6cccc7c6CN(C6CCC(=O)NC6=O)C7=O)C(=O)OCc6ccc(NC(=O)[C@H](CCCNC(N)=O)NC(=O)[C@@H](NC(=O)[C@H](CCC(=O)O)NC(=O)COCCOCCn7cc(C[C@H](NC(=O)[C@H](CCCCN)NC(=O)[C@H](CC(=O)O)NC(=O)[C@H](CC(=O)O)NC(=O)Cc8ccc(CNC(=O)NCCCC[C@H](NC(=O)N[C@@H](CCC(=O)O)C(=O)O)C(=O)O)cc8)C(=O)N[C@@H](CCCCNC(=O)CC[C@H](NC(=O)c8ccc(NCc9cnc%10[nH]c(N)nc(=O)c%10n9)cc8)C(=O)O)C(N)=O)nn7)C(C)C)cc6)CC5)nn4)cc3OC)nc2N1C1CCCC1 (stereo partly drawn) [CR202V4] | – | 222 | 234 | −0.12 | 84.13 | 0.04 | 75.9 | 0.11 | 74.3 | 0.17 | 78.2 | 0.30 | 61.3 | 0.42 | 70.4 | 2.62 | 1.36 | CR20274 release rate of compounds after cleavage (cathepsin B-human liver; 0 h): 0%; Principal component residue of compounds after cleavage (cathepsin B-human liver; 0 h): 100.00%; CR20274 release rate of compounds after cleavage (cathepsin B-human liver; 1 h): 100%; Principal component residue of compounds after cleavage (cathepsin B-human liver; 1 h): 0.00%; CR20274 release rate of compounds after cleavage (cathepsin B-human liver; 2 h): 100%; Principal component residue of compounds after cleavage (cathepsin B-human liver; 2 h): 0.00%; CR20274 release rate of compounds after cleavage (cathepsin B-human liver; 4 h): 100%; Principal component residue of compounds after cleavage (cathepsin B-human liver; 4 h): 0.00%; CR20274 release rate of compounds after cleavage (cathepsin B-human liver; 24 h): 100%; Principal component residue of compounds after cleavage (cathepsin B-human liver; 24 h): 0.00%; IC50 (C4-2): 84.7 nM; solubility at 2 min (Solubility study in PBS): 8000 µg/mL (≈ 2580 µM) |
| CC[C@@H]1C(=O)N(C)c2cnc(Nc3ccc(-c4cn([C@H]5CC[C@@H](N(CCOCCC#Cc6cccc7c6CN(C6CCC(=O)NC6=O)C7=O)C(=O)OCc6ccc(NC(=O)[C@H](CCCCN)NC(=O)[C@H](CC(C)C)NC(=O)[C@@H](NC(=O)COCCOCCn7cc(C[C@H](NC(=O)[C@H](CCCCN)NC(=O)[C@H](CC(=O)O)NC(=O)[C@H](CC(=O)O)NC(=O)Cc8ccc(CNC(=O)NCCCC[C@H](NC(=O)N[C@@H](CCC(=O)O)C(=O)O)C(=O)O)cc8)C(=O)N[C@@H](CCCCNC(=O)CC[C@H](NC(=O)c8ccc(NCc9cnc%10[nH]c(N)nc(=O)c%10n9)cc8)C(=O)O)C(N)=O)nn7)C(C)C)cc6)CC5)nn4)cc3OC)nc2N1C1CCCC1 (stereo partly drawn) [CR202V8] | – | 20.5 | 24.1 | 0.06 | 78.37 | 1.94 | 50.9 | 5.56 | 59.9 | 7.07 | 49.5 | 14.20 | 41.2 | 14.58 | 32.5 | 105.58 | −2.40 | CR20274 release rate of compounds after cleavage (plasmin; 0 h): 22%; Principal component residue of compounds after cleavage (plasmin; 0 h): 8%; CR20274 release rate of compounds after cleavage (plasmin; 1 h): 100%; Principal component residue of compounds after cleavage (plasmin; 1 h): 1%; CR20274 release rate of compounds after cleavage (plasmin; 2 h): 100%; Principal component residue of compounds after cleavage (plasmin; 2 h): 1%; CR20274 release rate of compounds after cleavage (plasmin; 4 h): 100%; Principal component residue of compounds after cleavage (plasmin; 4 h): 0%; CR20274 release rate of compounds after cleavage (plasmin; 24 h): 100%; Principal component residue of compounds after cleavage (plasmin; 24 h): 0%; solubility (Solubility study in PBS): 7500 µg/mL (≈ 2450 µM) |
